{"source": "patent US20070053894", "proteins": {"B1": {"name": "tissue plasminogen activator (tPA) (protein)", "chain": "SYQVICRDEKTQMIYQQHQSWLRPVLRSNRVEYCWCNSGRAQCHSVPVKSCSEPRCFNGGTCQQALYFSDFVCQCPEGFAGKCCEIDTRATCYEDQGISYRGTWSTAESGAECTNWNSSALAQKPYSGRRPDAIRLGLGNHNYCRNPDRDSKPWCYVFKAGKYSSEFCSTPACSEGNSDCYFGNGSAYRGTHSLTESGASCLPWNSMILIGKVYTAQNPSAQALGLGKHNYCRNPDGDAKPWCHVLKNRRLTWEYCDVPSCSTCGLRQYSQPQFRIKGGLFADIASHPWQAAIFAKHRRSPGERFLCGGILISSCWILSAAHCFQERFPPHHLTVILGRTYRVVPGEEEQKFEVEKYIVHKEFDDDTYDNDIALLQLKSDSSRCAQESSVVRTVCLPPADLQLPDWTECELSGYGKHEALSPFYSERLKEAHVRLYPSSRCTSQHLLNRTVTDNMLCAGDTRSGGPQANLHDACQGDSGGPLVCLNDGRMTLVGIISWGLGCGQKDVPGVYTKVTNYLDWIRDNMRP"}}, "key": {"[1]": {"biological_target": "T1, plasminogen, P00747", "T1 chain": "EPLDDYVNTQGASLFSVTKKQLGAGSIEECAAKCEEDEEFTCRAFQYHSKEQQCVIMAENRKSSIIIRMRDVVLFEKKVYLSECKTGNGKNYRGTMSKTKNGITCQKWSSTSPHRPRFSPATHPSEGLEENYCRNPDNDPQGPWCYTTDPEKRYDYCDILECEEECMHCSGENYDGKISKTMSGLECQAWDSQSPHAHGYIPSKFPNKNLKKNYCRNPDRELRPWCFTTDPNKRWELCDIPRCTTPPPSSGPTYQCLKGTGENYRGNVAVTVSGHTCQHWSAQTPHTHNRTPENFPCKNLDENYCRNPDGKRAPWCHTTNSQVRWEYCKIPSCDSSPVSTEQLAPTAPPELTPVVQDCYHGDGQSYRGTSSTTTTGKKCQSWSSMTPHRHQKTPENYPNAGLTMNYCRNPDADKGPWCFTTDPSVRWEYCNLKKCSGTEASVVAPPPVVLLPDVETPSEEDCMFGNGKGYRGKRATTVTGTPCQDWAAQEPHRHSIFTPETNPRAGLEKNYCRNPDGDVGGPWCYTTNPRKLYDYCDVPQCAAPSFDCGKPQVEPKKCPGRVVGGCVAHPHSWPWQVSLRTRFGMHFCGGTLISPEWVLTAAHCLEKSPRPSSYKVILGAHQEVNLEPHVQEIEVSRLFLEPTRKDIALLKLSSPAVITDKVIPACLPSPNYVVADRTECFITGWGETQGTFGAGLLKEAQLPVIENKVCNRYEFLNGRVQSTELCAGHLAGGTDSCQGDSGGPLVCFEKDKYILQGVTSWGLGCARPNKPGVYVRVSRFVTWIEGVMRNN"}, "[2]": {"biological_target": "T2, Soluble human recombinant p97 (melanotransferrin)", "T2 chain": "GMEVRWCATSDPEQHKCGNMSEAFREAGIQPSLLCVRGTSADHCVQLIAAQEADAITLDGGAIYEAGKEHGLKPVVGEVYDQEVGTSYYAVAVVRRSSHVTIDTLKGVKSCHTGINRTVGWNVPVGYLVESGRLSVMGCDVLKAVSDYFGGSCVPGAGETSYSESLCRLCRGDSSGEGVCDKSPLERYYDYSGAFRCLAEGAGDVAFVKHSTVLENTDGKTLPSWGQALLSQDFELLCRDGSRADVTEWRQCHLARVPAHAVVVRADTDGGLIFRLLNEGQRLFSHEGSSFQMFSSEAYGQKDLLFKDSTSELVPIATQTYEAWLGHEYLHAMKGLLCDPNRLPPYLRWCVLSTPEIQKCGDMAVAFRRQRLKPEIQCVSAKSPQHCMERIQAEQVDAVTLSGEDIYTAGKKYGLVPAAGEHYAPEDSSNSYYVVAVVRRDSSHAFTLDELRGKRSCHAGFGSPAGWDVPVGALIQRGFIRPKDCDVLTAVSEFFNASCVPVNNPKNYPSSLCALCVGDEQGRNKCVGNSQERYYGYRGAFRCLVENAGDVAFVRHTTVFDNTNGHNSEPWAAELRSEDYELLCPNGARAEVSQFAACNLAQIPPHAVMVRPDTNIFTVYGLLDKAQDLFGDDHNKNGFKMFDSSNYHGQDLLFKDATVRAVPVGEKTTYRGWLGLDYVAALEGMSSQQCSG"}}, "data": [{"protein": "B1", "values": [{"measurement": "apparent Km of tPA for plasminogen, with 50 nM p97", "setting": "[1]", "value": "decreases the apparent Km of tPA for plasminogen by 5-fold from 280 to 52 nM"}, {"measurement": "apparent Km of tPA for plasminogen, without p97", "setting": "[1]", "value": "decreases the apparent Km of tPA for plasminogen by 5-fold from 280 to 52 nM"}, {"measurement": "VLK-pNA hydrolysis by 75 nM tPA with 70 nM p97, without plasminogen", "setting": "[2]", "value": "Addition of p97 to tPA elicits no observable effect"}]}]}
